# Experiment: yeast display, Sf9 membrane polyspecificity reagent, FACS + sequencing; frameworks hold sequencing errors
# Procedure, shortened: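 Polyreactivity labels are assigned by the sorting gate from which each nanobody was recovered. The gates were low and high (top ~1%), set on anti-HA fluorescence for expression and streptavidin fluorescence for reagent binding. Before sorting, galactose-induced (36–48 hours) yeast display cells were stained for 1 hour at 4 °C with 10% biotinylated, detergent-solubilized Sf9 membrane reagent.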
row,Sequence,polyreactivity (PSR sort gate)
1,QVQLVESGGGLVQEGGSLRLSCAASGNIFRAYGMGWYRQAPGKERELVAAIDTTGGRTYYADSVKGRFTISRDNAKNTVYLQMNSLKPEDTAVYYCAVRAPAYPYYRGFDYWGQGTQVTVSS,low polyreactivity
2,QVQLVESGGGLVQEGGSLRLSCAASGNIFRINGMGWYRQAPGKERELVATITGNGGSTYYAASVKGRFTISRDNAQNTVYLQMNSLKPEDTAVFYCAAQTTVYIYDYWGQGTQVTVSS,low polyreactivity
3,QVQLVESGGGLVQEGGSLRLSCAASGRIFVGNAMGWYRQAPGKERELVASMTRGRRTNYADSVKGRFTISRDNAKNTVFFQMNSLKPVDTAVYYCNAPGVTRAYLVGYDYWGQGTQVTVSS,low polyreactivity
4,QVQLVESGGGLVQEGGSLRLSCAASGRIFYFYAMGRYRQAPGKERELVADIDWSGDSTYYADSVKGRFTISRDNAKITVYLQMNSLIPEDTAVYYCNAAYYYYSTSYTYDYWGQGTQVTVSS,low polyreactivity
5,QVQLVESGGGLVQEGGSLRLSCAASGRILSPNAMGWYRQAPGKERELVATITRSGGSTYYADSVKGRFTISRDNAKNTVYLQMNSLKPEDTAVYYCAKLHTYPWIHDYWGQGTQVTVSS,low polyreactivity
6,QVQLVESGGGLVQEGGSLRLSCAASGSIFAKYAMGWYSQAPGKEREFVAGISYSGNTYYADSVKGRFTISRDNAKNTVYLQMNSLKPEDTAVYYCAADGYLQTRRFDYWGQGTQVTVSS,high polyreactivity
7,QVQLVESGGGLVQEGGSLRLSCAASGSIFGRNVMGWYRQAPGKERELVAAISEGGGRTYYADSVKGRFTISRDNAKNTVYLQMNSLKPEVTAVYYCAAAYFSSGYKYYYWGQGTQVTVSS,high polyreactivity
8,QVQLVESGGGLVQEGGSLRLSCAASGSIFKEYAMGWSRQAPGKERELVAAISTSGDITYYSDSVKGRFTISRDNAKNTVYLQMNSLKPEDTGVYYCAANYSLLRQYNRLDYWGQGTQLTVSS,low polyreactivity
9,QVQLVESGGGLVQEGGSLRLSCAASGSIFNTYAMGRYRQAPGKEREMVAGITKTGSRTYYADSVKGRFTISRDNAKNTVYLQMNSLKPEDTAVYYCNARIWPRSYRYDYWGQGTQVTVSS,high polyreactivity
10,QVQLVESGGGLVQEGGSLRLSCAASGSTFPLYTMGWYRQAPGKERELVATISRGGSTYYADSVKGRFTISRDNAKNTVYLQMNSLKPEDTAVYYCAARPFGFKFDYWGQGTQVTVSA,low polyreactivity
11,QVQLVESGGGLVQEGGSLRLSCAASGSTFSNYMGWYRQAPGKERELVAAITQSGVSTYYADSVKGRFTISRDNAKNTVYLQMNSLKPEDTAVYYCYNYLSGYDYWGQGTQVTVSS,low polyreactivity
12,QVQLVESGGGLVQEGGSLRLSCAASGSTFYNYAMGLYRQAPGKERELVAAITSSGGSTYYADSVKGRFTISRDYAKNTVYLQMNSLKPEDTAVYYCNADDGYGQVHSISNYEMDYWGQGTQVTVSS,low polyreactivity
13,QVQLVESGGGLVQEGGSLRLSCAASGSTFYYYAMGWYRQAPGKERELVAAISSSGSTYYADSVKGRFTISRDNAKNTVYLQMISLNPEDTAVFYCNADSRTAGLNSEYDYWGQGTQVTVSS,low polyreactivity
14,QVQLVESGGGLVQEGGSLRLSCAASGSTSRKYTMGWYRQAPGKERELVATISWSGGSTNYADSVKGRFTISRDNAKNNVYLQMNSLIPEDTAVYYCNAYVSPRYRGTRYYYWGQVTQVTVSS,high polyreactivity
15,QVQLVESGGGLVQEGGSLRLSCAASGYIFVRYAMGWYRQAPGKEREFVAAISSSGGSTRYADSVKGRFTISRDNAKYTVYLQMHRLKPEDTPVYYCAATSVARNGSPMYYWGQGTLVTVSS,high polyreactivity
16,QVQLVESGGGLVQEGGSLRLSCASSGFIFEDYAKGWYRQARGKERELVAAMRSNDDSTYYADSVKGRFTISRDNAKNSVYFQMNSLKPEDTAVYYCAAATYGTRLRRYYYWGQGSQVTVSS,high polyreactivity
17,QVQLVESGGGLVQEGGSLRLSCASSGSTFRYNVMGWYRQAPGKERELVAAITRRGSRTYYADSVKGRFTISRDNAKNTVYLHMNSLKPADTAVYDCNKNSLSVPANDDYWGQGTQVTVSS,high polyreactivity
18,QVQLVESGGGLVQEGGSLSLICAASGRIYTPYAMGSYRQAPGKERELVAVIRDGSTYYADSVKGRFTISRDNAKNTVYLQMNSLKPADTAVYDCRYDIWVWWSGAYDYWGQCTQVTVSS,low polyreactivity
19,QVQLVESGGGLVQGGGSLGLSCAASGRIFPVNAMGWYRQAPGKERELVAAISTTGARTYYADSVKGRFTISRDNAKNTVYLQMNSLKPEDTAVYYCAAKQFSVTLSNYWGQGTQVTVSS,low polyreactivity
20,QVQLVESGGGLVQGGGSLRLSCAASGINFGLYTMGWYRQAPGKERELVAAISDSGGRTYYADSVKGRFTISRDNAQNTVYLQMNSLKPEDTSVYYCAAEFWYVWEYNYWGQGTQVTVSS,high polyreactivity
21,QVQLVESGGGLVQGGGSLRLSCAASGNILRIYAMGWYRQAPGKEREFVAAIRQSDGRTYYADSVKGRFTISRDNAKNTVYLQMNSLKPEDTSVYYCAADVYQEYDYWGQGTQVTVSS,high polyreactivity

row,Sequence,polyreactivity (PSR sort gate)
1,QVQLVESGGGLVQGGGSLRLSCAASGRTFQTNVMGWYRPAPGKERELVAAITLSGGSTNYADSVKGRFTISRDNAKNTVYVQMNSLKPEDTAVYYCNAERRYRHQWTPHYEYDYWGQGTQVSVSS,low polyreactivity
2,QVQLVESGGGLVQGGGSLRLSCAASGRTFYWNAMGWYRQAPGKERELVAAIRWRGGNTYYADSVKGRFTISRDIEKNTVYLQMNSLKPEDSAVYYCAAAGGNTEMGYWGQGSQVTVSS,high polyreactivity
3,QVQLVESGGGLVQGGGSLRLSCAASGSIFPGNAMGCYRQAPGKERELLAVIDFSGASTYYADSLKGRFTISRDNAKNTVYLQMKSLKPEATAVYWGQGTQVTVSS,low polyreactivity
4,QVQLVESGGGLVQGGGTLRLSCAASGSILSRNTMGWYRQAPGKEREFVADISKGDSTYYADSVKGRFTISRDNAKNTGYLQMNILKPVDTAVYYCAVDSWRRAMWYYGRYGYWGQGTEVTVSS,low polyreactivity
5,QVQLVESGGGLVQPGGRLRLSCEASGIFTDYAMGCYRQEPGKERELVAAISWRGGSTYFADSVKGRFTISRDNAKKTVYLQMHSLKPEDTAVFYCAAGVRGGGGRYRYGYWGQGTQVTVSS,high polyreactivity
6,QVQLVESGGGLVQPGGSLLLRGAASGSIYYRNVMGWYRPAPGKERELVAAISSGGNTYYADSVKGRFTISRDNAKNTVYLQMNSLKPVDTAVYYCNAEYEGLSFGWYEYWYDYWGQGTQVTVSS,high polyreactivity
7,QVQLVESGGGLVQPGGSLRLSCAASGFIFYWYAMGWYRQAPGKERELVAAISYDTGSTYYADSVKGRFTISRDNAKITVYFQINSLKPEDTAVYYCAADASWRVYTGYYWGQGTQVTVSS,high polyreactivity
8,QVQLVESGGGLVQPGGSLRLSCAASGFTFIRNVMGWYRQAPGKERELVARITYSSGSTYYADSVKGRFTISRDNAKNTVYLQMNSLKPEDTAVYYCAVRLYSYLYNPFNYWGQGTQVTVSS,high polyreactivity
9,QVQLVESGGGLVQPGGSLRLSCAASGGIFLGNAMGGYRQAPGKERELVAGITWSGGRTYYADSVKGRFTISRDNAKNTVYLQMTSLKPEDTAVYDCNKDTPGTRFYGIYSYDYWGQGTQVTVSS,low polyreactivity
10,QVQLVESGGGLVQPGGSLRLSCAASGIIFSFYTIGWDRQEPGKEMELVAAISSSGGRTFYADSVKGRFTISRDNAKNTVYLQMNSLKPEDTAVYYCYAAHTREYYWGQGTQVTLSS,high polyreactivity
11,QVQLVESGGGLVQPGGSLRLSCAASGRIFGWYAMGWYRQAPGKERELVAAITWSGTSTYYADSVKGRFTISRDNAKNTVYLQMNSLKPEDTAVYYCAADSLRGSAPTYYSTLEYWGQGTQVTVSS,low polyreactivity
12,QVQLVESGGGLVQPGGSLRLSCAASGRISYVYTMGWYRQAPGKERELVAAISKSGGSTSYADSVKGRFTISRDNAKNTVYLQMNSLKPEDTAVYYCAAGRYYYTYAYDHWGQGTQVTLSS,high polyreactivity
13,QVQLVESGGGLVQPGGSLRLSCAASGRTFGDYVMGWDREAPGKERELVAVITYRGGSTYYADSVKGRFTISRDNAKNTVHLQMNSLKPEDTAVYYCAAAARAGLKRYYYWGQGTQVTVSS,high polyreactivity
14,QVQLVESGGGLVQPGGSLRLSCAASGRTFRTNAMGWSRQEPGKERELVAAISTGGGITNYADSVKGRFTISRDNAKNTVYLQMNCLKPEDTAVYYCAARLAYNAIGYYYWGQGTQVTVSS,low polyreactivity
15,QVQLVESGGGLVQPGGSLRLSCAASGRTFTGYTMGWYRQAPGKERELVAAIRWSGDRTYYADSVKGRFTISRDNAKNTVYLQMNSLKPEDTAVYYCAAARYVYGKFVGFDYWGQGTQVNVSS,high polyreactivity
16,QVQLVESGGGLVQPGGSLRLSCAASGRTFVPYAMGWYRQAPGKEREFVAVITWGGGSTYYADSVKGRFTISRDNAKNTVYLQMNSLKPEDTAVYYCDARVYYHYDYWGQGTQVTVSS,high polyreactivity
17,QVQLVESGGGLVQPGGSLRLSCAASGSIFTPNAMGWYRPAPGKERELVAAISSSSDRTYYADSVKGRFTISRDNAKNTVYLQMNSLKPEDTAVYYCAALSKTRGGYWGHGTQVTVSS,high polyreactivity
18,QVQLVESGGGLVQPGGSLRLSCAASGSTFIEYSMGWYRQAPGKERELVATIRGTGSTNYADSVKGRFTISRDNAKNTVYLQMNSLKPEDTAVYYCMKKPDPRWYYWGDYWGQGTQVTVSS,low polyreactivity
19,QVQLVESGGGLVQSGGSIRLSCAASGSTFDHYTMGWYRQAPGKERELVAAINRIGDSTYYADSVKGRFTISRDNAKNTVYLQMNSLKPEDTAVYDCAARHVPRFNKYGYWGQGTQVNVSS,high polyreactivity
20,QVQLVESGGGLVQSGGSLRLSCAASGFIFGEYTMGWNRQAPGKEREFVAAISWSGGSTSYADSVKGRFTISRDNAKNTVYLQMNSLKPEDTAVYYCAARYGSDYDYWGQGTQVTVSS,low polyreactivity
